Source: US20200140551A1 (GlaxoSmithKline, published 2020)

T1: human ICOS (human, UniProt Q9Y6W8 21-140, limits assumed)
T1 sequence: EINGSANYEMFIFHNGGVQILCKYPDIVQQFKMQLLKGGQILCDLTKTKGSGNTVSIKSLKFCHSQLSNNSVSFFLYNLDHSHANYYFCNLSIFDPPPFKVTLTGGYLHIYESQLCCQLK

T2: cynomolgus ICOS (cynomolgus, UniProt A0A2K5TQR6 21-140)
T2 construct: also called cyno ICOS; not shown: Carrier of the soluble construct, if any
T2 sequence: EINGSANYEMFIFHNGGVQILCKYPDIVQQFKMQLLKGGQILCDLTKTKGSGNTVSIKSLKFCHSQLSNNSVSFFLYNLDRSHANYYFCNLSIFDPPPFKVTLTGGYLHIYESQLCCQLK


Legend:
human ICOS = biological target: T1, human ICOS; test: Biacore (SPR), human ICOS; format not described
cynomolgus ICOS = biological target: T2, cynomolgus ICOS; test: Biacore (SPR), cyno ICOS; format not described

| Kd (human ICOS) [µM] | Kd (cynomolgus ICOS) [µM] | Binder |
| --- | --- | --- |
| 0.031 | 0.023 | murine anti-human ICOS mAb clone 88.2 (antibody, V domains shown) VH: QVQLQQPGAELVRPGASVKLSCKASGYSFTSYWINWVKQRPGQGLEWIGNIYPSDSYTNYNQMFKDKATLTVDKSSNTAYMQLTSPTSEDSAVYYCTRWNLSYYFDNNYYLDYWGQGTTLTVSS VL: QAVVTQESALTTSPGETVTLTCRSSTGAVTTSNYANWVQEKPDHLFTGLIGGTNNRAPGVPARFSGSLIGDKAALTITGAQTEDEAIYFCALWYNNHLVFGGGTKLTVL |
| 0.0057 | 0.00446 | murine anti-human ICOS mAb clone 422.2 (antibody, V domains shown, also called hybridoma clone 422.2) VH: QVQLQQSGPELVRPGESVKISCMGSGYTFTDYAMHWVKQSHAKSLEWIGLISIYSDHTNYNQKFQGKATMTVDKSSSTAYMELARLTSEDSAIYYCGRNNYGNYGWYFDVWGAGTTVTVSS VL: ENVLTQSPAIMSASPGEKVTMTCSASSSVSYMHWYQQKSITSPKLWIYDTSKLASGVPGRFSGSGSGNSYSLTISSMEAEDVATYYCFQGSGYPYTFGGGTKLEIKR |
